{"source": "patent US20170369576A1", "about": "(UBI US, published 2017)", "key": {"[1]": {"molecular_target": "T1, human CD4, membrane-bound on cells (HPB-ALL cells, blood/PBMC CD4+ T cells, assay target cells) (human, UniProt P01730 26-458)", "assay": "cell-based or functional assay"}, "[2]": {"molecular_target": "T1, human CD4, membrane-bound on cells …", "assay": "binding to human CD4 positive T cells (FIG. 21)"}, "[3]": {"molecular_target": "T2, baboon CD4 on CD4 positive T cells (baboon (Papio species), UniProt A0A096MWA4 26-457)", "T2 construct": "also called baboon CD4+ T cells", "T2 sequence (A0A096MWA4 entry or part of it limits assumed, form in doubt)": "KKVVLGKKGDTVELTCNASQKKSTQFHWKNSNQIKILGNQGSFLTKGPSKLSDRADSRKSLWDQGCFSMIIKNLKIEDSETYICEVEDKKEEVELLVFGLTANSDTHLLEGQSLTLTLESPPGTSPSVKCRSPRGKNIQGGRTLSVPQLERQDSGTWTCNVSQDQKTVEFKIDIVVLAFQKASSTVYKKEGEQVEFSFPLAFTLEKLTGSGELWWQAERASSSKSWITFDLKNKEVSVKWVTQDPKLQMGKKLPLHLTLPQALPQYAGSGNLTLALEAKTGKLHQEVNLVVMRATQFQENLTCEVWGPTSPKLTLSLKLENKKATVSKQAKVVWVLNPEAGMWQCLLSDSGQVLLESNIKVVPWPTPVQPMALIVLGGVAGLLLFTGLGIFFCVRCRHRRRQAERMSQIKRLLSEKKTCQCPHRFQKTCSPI", "assay": "binding to baboon CD4 positive T cells (FIG. 21)"}, "[4]": {"molecular_target": "T1, human CD4, membrane-bound on cells …", "assay": "comparison of IC50 values, competition FACS on HPB-ALL cells"}, "[5]": {"molecular_target": "T1, human CD4, membrane-bound on cells …", "assay": "competition FACS on HPB-ALL cells; inhibition of dB4-Alexa (250 ng/mL)", "protocol": "(§1) On V-bottomed microplates, aliquots of 2×10⁵ cells in 0.1 mL per well were added, centrifuged, and liquid discarded. […] The cells were washed once and the liquid discarded after centrifugation. To each well, aliquots of 200 μL of binding buffer were added and transferred to microdilution tubes for flow cytometric analysis. The binding intensity (mean fluorescence intensity, MFI), based on an inlet of 5,000 cells per sample, was read on FACS."}, "[6]": {"molecular_target": "T3, recombinant soluble CD4 (UniProt P01730 26-390, limits assumed)", "T3 construct": "also called sCD4; rsCD4", "assay": "competition ELISA on coated sCD4/p2704a mixture; inhibition of B4-biotin (10 µg/mL)"}, "[7]": {"molecular_target": "T1, human CD4, membrane-bound on cells …", "assay": "comparison of IC50 values of FACS competition (HPB-ALL) and ELISA competition (sCD4/p2704a)", "protocol": "as §1"}, "[8]": {"molecular_target": "T1, human CD4, membrane-bound on cells …", "assay": "FACS, fresh blood CD4+ T cells of subject F1; bound dB4 detected by goat anti-hIgG-FITC", "description": "(§2) The samples were calibrated with reference beads for fluorescence reading."}, "[9]": {"molecular_target": "T1, human CD4, membrane-bound on cells …", "assay": "FACS, fresh blood CD4+ T cells of subject M2; bound dB4 detected by goat anti-hIgG-FITC", "description": "as §2"}, "[10]": {"molecular_target": "T1, human CD4, membrane-bound on cells …", "assay": "FACS, fresh blood CD4+ T cells of subject M3; bound dB4 detected by goat anti-hIgG-FITC", "description": "as §2"}, "[11]": {"molecular_target": "T1, human CD4, membrane-bound on cells …", "assay": "FACS direct binding to HPB-ALL cells, on ice 1 h, goat F(ab)2 anti-huIgG Fc-FITC; EC50 by % MFI, exp. 1", "protocol": "(§3) On V-bottomed microplates, aliquots of 2×10⁵ cells in 0.1 mL per well were added, centrifuged, and liquid discarded. […] This step was repeated one more time. The cells from the three incubations (passages) were investigated. […] The cells were washed once and the liquid discarded after centrifugation. To each well, aliquots of 200 μL of binding buffer were added and transferred to microdilution tubes for flow cytometric analysis. The binding intensity (mean fluorescence intensity, MFI), based on an inlet of 5,000 cells per sample, was read on FACS.\n(§4) The absolute MFI values were also normalized to % MFI for purpose of between-passage comparison."}, "[12]": {"molecular_target": "T1, human CD4, membrane-bound on cells …", "assay": "FACS direct binding to HPB-ALL cells, on ice 1 h, goat F(ab)2 anti-huIgG Fc-FITC; EC50 by % MFI, exp. 3", "protocol": "as §3, §4"}, "[13]": {"molecular_target": "T1, human CD4, membrane-bound on cells …", "assay": "FACS direct binding to HPB-ALL cells, on ice 1 h, goat F(ab)2 anti-huIgG Fc-FITC; EC50 by % MFI, mean of 3", "protocol": "as §3, §4"}, "[14]": {"molecular_target": "T1, human CD4, membrane-bound on cells …", "assay": "FACS, fresh blood CD4+ T cells of subject F1; free CD4 sites left by dB4 detected by dB4C7-Alexa (250 ng/mL)"}, "[15]": {"molecular_target": "T1, human CD4, membrane-bound on cells …", "assay": "FACS, fresh blood CD4+ T cells of subject F2; free CD4 sites left by dB4 detected by dB4C7-Alexa (250 ng/mL)"}, "[16]": {"molecular_target": "T1, human CD4, membrane-bound on cells …", "assay": "FACS, fresh blood CD4+ T cells of subject F3; free CD4 sites left by dB4 detected by dB4C7-Alexa (250 ng/mL)"}, "[17]": {"molecular_target": "T1, human CD4, membrane-bound on cells …", "assay": "FACS, fresh blood CD4+ T cells of subject M2; free CD4 sites left by dB4 detected by dB4C7-Alexa (250 ng/mL)"}, "[18]": {"molecular_target": "T1, human CD4, membrane-bound on cells …", "assay": "saturation binding to HPB-ALL cells on ice 1 h; free antibody by ELISA, bound by subtraction, curve fit; exp. 2", "protocol": "(§5) The resultant saturating free-vs.-bound concentration profiles were analyzed on SigmaPlot by curve-fitting based on the equation, [B]=Bmax·{[F]/([F]+Kd)}, where the respective [B] and [F] stand for the bound and free concentrations.\n(§6) The binding study was conducted at cold and/or under 0.05% azide to avoid a potential endocytosis of the ligand-receptor complexes. Incubation at room temperature or 37° C. could allow a reaction plateau to be reached sooner. […] The supernatants were collected for determination by ELISA of the free drug concentrations, and the bound fractions were obtained by subtraction from the total."}, "[19]": {"molecular_target": "T1, human CD4, membrane-bound on cells …", "assay": "FACS direct binding to blood CD4+ T cells of one individual, 4°C 1 h (printed as IC50 here, as EC50 in paragraph 342)", "description": "The MFI values reflect the degree of receptor occupancy, in particular when these values are normalized and expressed as % MFI."}, "[20]": {"molecular_target": "T1, human CD4, membrane-bound on cells …", "assay": "saturation binding to HPB-ALL cells on ice 1 h; free antibody by ELISA, bound by subtraction, curve fit; mean of 3", "protocol": "as §5, §6"}}, "note": "Where “and” joins values, the source holds several entries; their conditions need not be identical. Identical values can stand only once.", "data": [{"binder": "mAb dB4C7 (human deimmunized, Fc-aglycosylated IgG1 derived from murine mAb B4, expressed by clone 7) (antibody, V domains shown, N-glycosylated at Asn101 in the Fv; Fc N-glycosylation site removed (N298H), treated as one molecule; also called deimmunized B4) VH: QVQLVQSGPELKKPGASVKVSCKASGYTFTDYVIHWVKQATGQGLEWIGEIYPGSGSAYSNAKFKDRVTMTADKSSNTAYMELSSLTSDDTAVYFCARRGNGTGFAYWGQGTLVTVSS VL: DIVLTQSPASLAVSLGQRATITCKAGQSVDYDGDSYMNWYQQKPGQPPKLLIYVASNLESGIPARFSGSGSGTDFTLNIHPVEENDAATYYCQQSYKDPLTFGQGTKLEIKR", "values": [{"measurement": "IC50 of HIV entry inhibition, pseudotype virus 92TH594 (R5/X4), U87-CD4+/CCR5+/CXCR4+ cells", "setting": "[1]", "result": 0.05, "unit": "µg/mL"}, {"measurement": "IC50 of HIV entry inhibition, pseudotype virus HXB2 (X4), U87-CD4+/CCR5+/CXCR4+ cells", "setting": "[1]", "result": 0.4, "unit": "µg/mL"}, {"measurement": "EC50", "setting": "[2]", "result": 0.33, "unit": "µg/mL"}, {"measurement": "EC50", "setting": "[3]", "result": 0.29, "unit": "µg/mL"}, {"measurement": "fold binding affinity against gp120 MN", "setting": "[4]", "result": "≥ 50", "unit": "fold"}, {"measurement": "IC50", "setting": "[5]", "result": "0.197 µg/mL and 1.8 nM"}, {"measurement": "IC50", "setting": "[6]", "result": 8.19, "unit": "µg/mL"}, {"measurement": "fold binding affinity, CD4-positive T cells against sCD4", "setting": "[7]", "result": "> 40", "unit": "fold"}, {"measurement": "EC50", "setting": "[8]", "result": 0.0047, "unit": "µg/mL"}, {"measurement": "EC50", "setting": "[9]", "result": 0.0042, "unit": "µg/mL"}, {"measurement": "EC50", "setting": "[10]", "result": 0.0026, "unit": "µg/mL"}, {"measurement": "EC50", "setting": "[11]", "result": 0.0424, "unit": "µg/mL"}, {"measurement": "EC50", "setting": "[12]", "result": 0.0407, "unit": "µg/mL"}, {"measurement": "EC50", "setting": "[13]", "result": 0.0429, "unit": "µg/mL"}, {"measurement": "EC50", "setting": "[14]", "result": 0.0043, "unit": "µg/mL"}, {"measurement": "EC50", "setting": "[15]", "result": 0.0066, "unit": "µg/mL"}, {"measurement": "EC50", "setting": "[16]", "result": 0.0043, "unit": "µg/mL"}, {"measurement": "EC50", "setting": "[17]", "result": 0.0046, "unit": "µg/mL"}, {"measurement": "Kd", "setting": "[18]", "result": "0.0121 µg/mL and 0.081 nM"}, {"measurement": "EC50", "setting": "[19]", "result": 0.023, "unit": "µg/mL"}, {"measurement": "Kd", "setting": "[20]", "result": "0.0085 µg/mL and 0.056 nM"}]}]}
